Consider one substance from article PMC7192595.

Assay [1] has as its target LeishIF4E-3-SBP.
For assay [2], the target named is LeishIF4E-1-SBP.

Consider “MBP-Leish4E-IP2_(1-134) (domain or fragment)”, for which the reduction of the binding of SBP-LeishIF4E-3 (cell lysate) to m7GTP-agarose by 0, 5, 10, 20 ug MBP-Leish4E-IP2 (1-134) per 300 ul, densitometry of anti-SBP blots; 60% at 5 ug in assay [1] was determined as 96%. For the same substance, the reduction of the binding of SBP-LeishIF4E-1 (cell lysate) to m7GTP-agarose by 0, 5, 10, 20 ug MBP-Leish4E-IP2 (1-134) per 300 ul, densitometry of anti-SBP blots; 13% at 5 ug; MBP alone had no effect in assay [2] stood at 42%.
